Measurements taken from IntAct's records for PubMed 21139566.

B1: Structural maintenance of chromosomes protein 1 (Saccharomyces cerevisiae), P32908 (parent)
chain: MGRLVGLELSNFKSYRGVTKVGFGESNFTSIIGPNGSGKSNMMDAISFVLGVRSNHLRSNILKDLIYRGVLNDENSDDYDNEGAASSNPQSAYVKAFYQKGNKLVELMRIISRNGDTSYKIDGKTVSYKDYSIFLENENILIKAKNFLVFQGDVEQIAAQSPVELSRMFEEVSGSIQYKKEYEELKEKIEKLSKSATESIKNRRRIHGELKTYKEGINKNEEYRKQLDKKNELQKFQALWQLYHLEQQKEELTDKLSALNSEISSLKGKINNEMKSLQRSKSSFVKESAVISKQKSKLDYIFKDKEKLVSDLRLIKVPQQAAGKRISHIEKRIESLQKDLQRQKTYVERFETQLKVVTRSKEAFEEEIKQSARNYDKFKLNENDLKTYNCLHEKYLTEGGSILEEKIAVLNNDKREIQEELERFNKRADISKRRITEELSITGEKLDTQLNDLRVSLNEKNALHTERLHELKKLQSDIESANNQEYDLNFKLRETLVKIDDLSANQRETMKERKLRENIAMLKRFFPGVKGLVHDLCHPKKEKYGLAVSTILGKNFDSVIVENLTVAQECIAFLKKQRAGTASFIPLDTIETELPTLSLPDSQDYILSINAIDYEPEYEKAMQYVCGDSIICNTLNIAKDLKWKKGIRGKLVTIEGALIHKAGLMTGGISGDANNRWDKEEYQSLMSLKDKLLIQIDELSNGQRSNSIRAREVENSVSLLNSDIANLRTQVTQQKRSLDENRLEIKYHNDLIEKEIQPKITELKKKLDDLENTKDNLVKEKEALQNNIFKEFTSKIGFTIKEYENHSGELMRQQSKELQQLQKQILTVENKLQFETDRLSTTQRRYEKAQKDLENAQVEMKSLEEQEYAIEMKIGSIESKLEEHKNHLDELQKKFVTKQSELNSSEDILEDMNSNLQVLKRERDGIKEDIEKFDLERVTALKNCKISNINIPISSETTIDDLPISSTDNEAITISNSIDINYKGLPKKYKENNTDSARKELEQKIHEVEEILNELQPNARALERYDEAEGRFEVINNETEQLKAEEKKILNQFLKIKKKRKELFEKTFDYVSDHLDAIYRELTKNPNSNVELAGGNASLTIEDEDEPFNAGIKYHATPPLKRFKDMEYLSGGEKTVAALALLFAINSYQPSPFFVLDEVDAALDITNVQRIAAYIRRHRNPDLQFIVISLKNTMFEKSDALVGVYRQQQENSSKIITLDLSNYAE
partner: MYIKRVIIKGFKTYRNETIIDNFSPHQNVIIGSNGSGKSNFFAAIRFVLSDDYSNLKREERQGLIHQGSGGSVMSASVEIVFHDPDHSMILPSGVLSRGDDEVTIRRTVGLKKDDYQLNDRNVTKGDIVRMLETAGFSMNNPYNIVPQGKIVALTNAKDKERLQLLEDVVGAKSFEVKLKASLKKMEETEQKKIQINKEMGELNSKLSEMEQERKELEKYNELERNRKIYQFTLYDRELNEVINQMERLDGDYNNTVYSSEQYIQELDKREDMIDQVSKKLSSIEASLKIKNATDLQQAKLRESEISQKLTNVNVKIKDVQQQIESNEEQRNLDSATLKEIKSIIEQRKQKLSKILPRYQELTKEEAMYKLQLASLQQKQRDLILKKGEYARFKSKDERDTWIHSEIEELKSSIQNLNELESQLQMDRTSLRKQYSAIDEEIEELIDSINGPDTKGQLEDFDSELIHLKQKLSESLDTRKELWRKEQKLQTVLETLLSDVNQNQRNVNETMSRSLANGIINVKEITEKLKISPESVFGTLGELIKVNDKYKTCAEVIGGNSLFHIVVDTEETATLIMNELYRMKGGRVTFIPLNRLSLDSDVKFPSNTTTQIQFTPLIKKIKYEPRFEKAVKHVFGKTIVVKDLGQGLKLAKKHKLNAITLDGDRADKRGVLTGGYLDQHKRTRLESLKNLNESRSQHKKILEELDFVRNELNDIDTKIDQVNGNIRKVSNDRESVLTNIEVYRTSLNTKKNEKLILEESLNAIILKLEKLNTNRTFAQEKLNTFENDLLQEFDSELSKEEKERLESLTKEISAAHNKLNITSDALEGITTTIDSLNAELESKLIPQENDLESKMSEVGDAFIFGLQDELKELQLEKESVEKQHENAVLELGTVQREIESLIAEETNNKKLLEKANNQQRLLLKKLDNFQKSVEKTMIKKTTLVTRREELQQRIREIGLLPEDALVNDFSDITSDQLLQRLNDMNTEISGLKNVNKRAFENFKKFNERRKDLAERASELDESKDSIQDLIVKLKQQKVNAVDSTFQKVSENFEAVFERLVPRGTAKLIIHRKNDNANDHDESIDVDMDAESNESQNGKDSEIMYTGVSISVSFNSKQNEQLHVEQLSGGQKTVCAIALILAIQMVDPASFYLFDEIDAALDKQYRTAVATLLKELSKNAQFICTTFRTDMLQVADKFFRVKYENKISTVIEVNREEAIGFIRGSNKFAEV
B2: Structural maintenance of chromosomes protein 3 (Saccharomyces cerevisiae), P47037 (parent)
chain: B1 partner
partner: B1 chain

Variants of: B1
Settings: with smc3_yeast SMC3, P47037

Row | effect of a mutation on the interaction | Variant
1 | disrupting interaction | M665R

Variants of: B1
Settings: with smc3_yeast SMC3, P47037
Remark: another data set of the same source

Row | effect of a mutation on the interaction | Variant
2 | decreasing interaction | K554D
3 | decreasing interaction | K661D

Variants of: B2
Settings: with smc1_yeast SMC1, P32908

Row | effect of a mutation on the interaction | Variant
4 | decreasing interaction | K668A
5 | decreasing interaction | R665A
6 | decreasing interaction | R669A
